Earlier results on 1 substance are cited in US20120064039A1, “Use of Guanylyl Cyclase C Agonists to Suppress Appetite” (priority 2009, published 2012).

The target in the data set is ST receptors (guanylate cyclase) (Homo sapiens, UniProt P25092). The note with it: relative to native ST; about.
ST receptors (guanylate cyclase), sequence (P25092 24-1073): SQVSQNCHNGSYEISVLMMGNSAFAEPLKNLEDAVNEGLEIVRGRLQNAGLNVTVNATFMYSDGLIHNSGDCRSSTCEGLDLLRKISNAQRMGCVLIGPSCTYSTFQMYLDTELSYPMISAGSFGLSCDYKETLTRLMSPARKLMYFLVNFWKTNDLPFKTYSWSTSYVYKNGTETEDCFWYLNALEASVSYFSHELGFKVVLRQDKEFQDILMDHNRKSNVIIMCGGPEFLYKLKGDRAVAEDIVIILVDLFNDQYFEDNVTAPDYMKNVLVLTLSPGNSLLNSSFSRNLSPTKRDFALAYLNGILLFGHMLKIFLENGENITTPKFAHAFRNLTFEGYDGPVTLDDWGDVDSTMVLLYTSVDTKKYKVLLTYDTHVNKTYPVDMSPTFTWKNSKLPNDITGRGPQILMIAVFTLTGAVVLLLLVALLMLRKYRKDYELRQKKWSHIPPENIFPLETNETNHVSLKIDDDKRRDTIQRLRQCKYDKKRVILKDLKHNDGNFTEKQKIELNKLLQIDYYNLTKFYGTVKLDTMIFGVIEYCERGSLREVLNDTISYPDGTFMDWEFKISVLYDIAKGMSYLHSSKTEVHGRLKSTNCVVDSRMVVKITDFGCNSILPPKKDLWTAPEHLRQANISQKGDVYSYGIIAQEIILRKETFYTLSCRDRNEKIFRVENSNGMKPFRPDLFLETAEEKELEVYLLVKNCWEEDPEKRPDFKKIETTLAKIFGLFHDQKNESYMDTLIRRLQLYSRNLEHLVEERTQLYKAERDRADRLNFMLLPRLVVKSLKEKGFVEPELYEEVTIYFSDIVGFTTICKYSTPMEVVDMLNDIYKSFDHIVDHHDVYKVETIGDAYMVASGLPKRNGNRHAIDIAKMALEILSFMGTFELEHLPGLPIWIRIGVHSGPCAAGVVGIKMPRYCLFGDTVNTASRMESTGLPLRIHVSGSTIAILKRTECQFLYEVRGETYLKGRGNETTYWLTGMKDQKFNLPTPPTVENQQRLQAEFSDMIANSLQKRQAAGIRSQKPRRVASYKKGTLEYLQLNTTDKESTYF

On to “guanylin (PNTCEICAYAACTGC; listed as Rattus norvegicus) [native GCC ligand]”, for which the “activates guanylate cyclase at a level less than native ST” value is reported as 10- to 100 fold.
